Consider one molecule from PMC4802085, “Haem-dependent dimerization of PGRMC1/Sigma-2 receptor facilitates cancer proliferation and chemoresistance” (Nature Communications, 2016).

In this assay the target is T1, purified EGFR (epidermal growth factor receptor) (human, UniProt P00533 25-1210).
T1 construct: epidermal growth factor receptor (EGFR), human, full length protein isolated from A431 cells; also called EGFR protein; source: bought: ENZO (BML-SE116), full length protein isolated from human A431 cells
In words: co-IP; in vitro binding assay: 1 μg purified EGFR with 10 μg FLAG-PGRMC1 (a.a.44–195) treated with 50 μmol l^−1 haemin, anti-FLAG (M2) agarose; 20 mmol l^−1 HEPES-NaOH (pH 7.9), 100 mmol l^−1 NaCl, 0.2 mmol l^−1 EDTA, 10% glycerol, 0.1% NP40, room temperature. The following applies: both partners purified.

B1: FLAG-PGRMC1 wild-type (a.a.44–195) (domain or fragment)
chain: not shown
notes: progesterone-receptor membrane component 1 (PGRMC1), human, cytosolic domain a.a.44–195; The cloning of the FLAG-tagged 44–195 construct is not described; probably made like the other a.a.44–195 proteins (pGEX6P-1, E. coli BL21 (DE3), GST cleaved); Used as apo form or treated with 50 μmol l^−1 haemin; also called FLAG-PGRMC1 wt (a.a.44–195); cytosolic domain of wild-type PGRMC1
As to B1, the binding result is given as “binds”.
